Data reported in the supplement of paper PMC11865577.

Assays:
Assay in all cases: pull-down binding Z-score (relative to library population); higher = stronger binding
Settings in all cases: RNA library: Library-2
[1] = tested on: TO-3-N3 (biotin conjugate)
Method in brief: (§1)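 A heat-folded, dye-end-labelled (Cy5 or Cy3) RNA library (1 μg, phosphate/NaCl/KCl buffer) was exposed for 60 min at 25 °C to streptavidin beads holding 100 pmol of biotin-conjugated small molecule. RNA retained on the beads was eluted in hot SDS and hybridised to a DNA barcode microarray for 20 h at 55.5 °C. Binding scores were Z-scores against the library mean and standard deviation, calculated after subtracting beads alone and taking trimmed means of replicate probes.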

[2] = tested on: TO-3-N3-2 (biotin conjugate)
Method in brief: as §1

[3] = tested on: TO-N3-2 (biotin conjugate)
Method in brief: as §1

[4] = tested on: TO-N3 (biotin conjugate)
Method in brief: as §1

| Sequence | pull-down binding Z-score [1] | pull-down binding Z-score [2] | pull-down binding Z-score [3] | pull-down binding Z-score [4] |
| --- | --- | --- | --- | --- |
| AACUGAAAGUAAACCUUCAGUU | -0.172 | -0.384 | -1.3 | -0.401 |
| AACUGCUUUUGGCUUAGUUGCAGAGUGGUU | -0.63 | -0.132 | -0.255 | -0.115 |
| AACUGGUAAUACACUUCAGUGUAUAAUGCUAGUU | -0.966 | -0.418 | -1.89 | -1.55 |
| AACUGUGAUGUUGUAAUAGGAAUUGUCAACAACACAGUU | -0.296 | -0.0554 | -1 | -0.618 |
| AACUUCUUAAGAGUGCUUAUGAAAAUUUUAAUCAGCACGAAGUU | 0.425 | 0.972 | -0.771 | -0.246 |
| AACUUUAAUGUU [SHAPE_invitro_SARS-CoV-2_Motif_263] | 0.212 | -0.765 | -1.33 | 0.00196 |
| AACUUUAGCUUGUUUUGUGCUUGCUGCUGUU | 0.701 | -0.0892 | -0.708 | 0.34 |
| AAGAAAGUUGAUGGUGUUGUCCAACAAUUACCUGAAACUUACUU [DMSMaPseq_invitro_SARS-CoV-2_Motif_358] | -1.04 | -0.423 | -1.44 | -1.34 |
| AAGAAGCUGCGCUGUGCACCUUUUU [DMSMaPseq_invitro_SARS-CoV-2_Motif_178] | -0.433 | -0.354 | 0.126 | -0.0759 |
| AAGAAGGUCAAAUCAAUGAUAUGAUUUUAUCUCUUCUU | -0.253 | 0.176 | -1.06 | -0.543 |
| AAGACUCAUCUCUAUGAUGGGUUUU | -0.938 | -0.575 | -1.46 | -1.34 |
| AAGAGAAAGUCAACAUCAAUAUUGUUGGUGACUUUAAACUU | 0.608 | -0.0741 | -0.494 | 0.557 |
| AAGCUGAUGAGUACGAACUUAUGUACUCAUUCGUUU | -0.634 | -0.284 | -0.895 | -0.877 |
| AAGGAGCUGGUGGCCAUAGUUACGGCGCCGAUCUAAAGUCAUUUGACUUAGGCGACGAGCUUGGCACUGAUCCUU [DMSMaPseq_invitro_SARS-CoV-2_Motif_14] | 0.0504 | 0.134 | 0.492 | 0.349 |
| AAGGAUGCUACUCCUU | -0.922 | -0.789 | -1.36 | -1.32 |
| AAGGCUGAUGAAACUCAAGCCUU | -0.506 | -0.269 | -0.106 | -0.413 |
| AAGGGAGGGGCGGGUCGGGAA [G4_2A2_NRAS] | 8.72 | 11.1 | 5.24 | 7.02 |
| AAGGGGGCCGUGGGGUGGGAGCUGGGGAA [G4_2A2_BCL2] | 8.07 | 9.67 | 4.88 | 6.6 |

| Sequence | pull-down binding Z-score [1] | pull-down binding Z-score [2] | pull-down binding Z-score [3] | pull-down binding Z-score [4] |
| --- | --- | --- | --- | --- |
| AAGGUAAAACCAACAGUGGUUGUUAAUGCAGCCAAUGUUUACCUU [DMSMaPseq_invitro_SARS-CoV-2_Motif_60] | -0.572 | -0.217 | -0.952 | -0.792 |
| AAGGUAAGAGGGAUACUUACCUG [U1snRNP5ss-26] | -0.614 | -0.286 | -0.262 | -0.673 |
| AAGGUACAGCAGAUACUUACCUG [U1snRNP5ss-22] | -0.32 | 0.198 | 0.0449 | -0.213 |
| AAGUGCUUUUGUUAAUUUAAAACAAUUACCAUUU [SHAPE_invitro_SARS-CoV-2_Motif_354] | -0.729 | -0.225 | -0.811 | -0.977 |
| AAGUUAAUUUUCCUCUGGCUGUUAUGGCCAGUAACUU [SHAPE_invivo_SARS-CoV-2_Motif_506] | -0.74 | -0.439 | -0.963 | -1.02 |
| AAGUUUGUUCGCAUUCAACCAGGACAGACUU [DMSMaPseq_invitro_SARS-CoV-2_Motif_187] | 1.1 | 0.0441 | -0.349 | 1.09 |
| AAUAACUUACCUUUUAAGUUGACAUGUGCAACUACUAGACAAGUUGUU | -0.907 | -0.415 | -1.52 | -1.21 |
| AAUAGAAGAAUUAUUCUAUU [SHAPE_invitro_SARS-CoV-2_Motif_349] | -0.546 | -0.687 | -1.81 | -0.867 |
| AAUAUUGCUUUGCUUGUACAGUAAGUGACAACAGAUGUUUCAUCUCGUUGACUUUCAGGUUACUAUAGCAGAGAUAUU [DMSMaPseq_invitro_SARS-CoV-2_Motif_488] | -0.135 | 0.152 | 0.237 | -0.0703 |
| AAUCAAAAAGAGUUGAUU [DMSMaPseq_invitro_SARS-CoV-2_Motif_439] | -0.396 | -0.434 | -1.22 | -0.416 |
| AAUCAUACAUCACCAGAUGUUGAUU [SHAPE_invitro_SARS-CoV-2_Motif_454] | -0.503 | -0.477 | -0.903 | -0.814 |
| AAUGAGUUUUACGCAUAUUUGCGUAAACAUU | -0.889 | -0.413 | -1.23 | -1.36 |
| AAUGUAGUAGAAUUAUACCUGCACGUGCUCGUGUAGAGUGUUUUGAUAAAUUCAAAGUGAAUUCAACAUUAGAACAGUAUGUCUUUUGUACUGUAAAUGCAUU | 0.059 | 0.0794 | -0.209 | 0.182 |
| AAUGUUUUAUUCUCUACAGUGUUCCCACUUACAAGUUUUGGACCACUAGUGAGAAAAAUAUU [DMSMaPseq_invitro_SARS-CoV-2_Motif_260] | -0.786 | -0.434 | -0.866 | -0.882 |
| AAUUAUAAAUUACCAGAUGAUUUUACAGGCUGCGUUAUAGCUUGGAAUUCUAACAAUCUUGAUUCUAAGGUUGGUGGUAAUUAUAAUU | -0.932 | -0.123 | -0.712 | -0.993 |
| AAUUAUGAAGAUUUACUCAUUCGUAAGUCUAAUCAUAAUU | -0.0299 | -0.3 | -0.858 | -0.429 |
| AAUUGAUUCUUACUUUGUAGUUAAGAGACACACUUUCUCUAACUACCAACAUGAAGAAACAAUU | 0.502 | 0.0491 | -0.614 | 0.281 |
| ACAACAACCAUAAAACCAGUUACUUAUAAAUUGGAUGGUGUUGU | -0.686 | -0.38 | -1.37 | -1.03 |
